Changes are numbered by the printed parent chain. Values belong to the binder of their own block, whether it stands above or below them.
Legend:
[1] = target: T1, IgG Fc-hVEGF-A (Human VEGF 165) fusion protein (rabbit; human, UniProt P15692-4 27-191); test: competitive ELISA: antibody mixed with IgG Fc-hVEGF, added to plate-bound IgG Fc-VEGFR2 (KDR); bound VEGF detected (OD405) [FIG. 1]
T1 construct: Expressed in HEK 293-6E cells and purified on Protein A; not shown: rabbit IgG Fc

[2] = target: T1, IgG Fc-hVEGF-A (Human VEGF 165) fusion …; test: competitive ELISA: antibody premixed with IgG Fc-hVEGF, plate coated with IgG Fc-VEGFR2 (KDR)
human VEGF [3] = target: T2, human VEGF (human, UniProt P15692-4 27-191, limits assumed); test: SPR, BIAcore-3000, human VEGF on CM5 chip
T2 construct: The background describes VEGF as a homodimer

[4] = target: T1, IgG Fc-hVEGF-A (Human VEGF 165) fusion …; test: direct binding ELISA on plate-bound IgG Fc-hVEGF, detection with donkey anti-human IgG-AP (OD405) [FIG. 4]
human VEGF [5] = target: T2, human VEGF; test: SPR, BIAcore-3000, human VEGF on CM5 chip, average of two experiments
human VEGF [6] = target: T2, human VEGF; test: SPR, BIAcore-3000, human VEGF on CM5 chip; reference AVASTIN
human VEGF [7] = target: T2, human VEGF; test: SPR, BIAcore-3000, human VEGF on CM5 chip, experiment 1
human VEGF [8] = target: T2, human VEGF; test: SPR, BIAcore-3000, human VEGF on CM5 chip, experiment 2

T1 sequence (P15692 other isoform, or with tags, fused parts or gaps limits assumed): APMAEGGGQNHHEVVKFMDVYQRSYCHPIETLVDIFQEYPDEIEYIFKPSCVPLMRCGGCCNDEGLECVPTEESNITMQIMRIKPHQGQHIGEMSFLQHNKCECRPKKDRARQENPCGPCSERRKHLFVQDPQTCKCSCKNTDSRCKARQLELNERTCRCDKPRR
T2 sequence (P15692 other isoform, or with tags, fused parts or gaps limits assumed): as above

- IC50 (read off the curve) [1]: ~0.9 µg/mL
B1: recombinant humanized antibody expressed by the HZD-V1 clone (antibody, V domains shown)
VH: QQLVESGGGLVKPGGSLRLSCAASGFSFSNNDVMCWVRQAPGKGLEWIGCIMTTDVVTEYANWAKSRFTVSKDSAKNSVYLQMNSLRAEDTAVYFCARDSVGSPLMSFDLWGPGTLVTVSS
VL: ALQMTQSPSSLSASVGDRVTINCQASQSVYGNNELSWYQQKPGKPPKLLIYRASTLASGVPSRFSGSGSGTDFTLTISSLQPEDVATYYCGGYKSYSNDGNGFGGGTKVEIK
notes: The pairing of VH-HZD1 with VK-HZD1 for clone HZD-V1 is inferred from the names; Variable domains were cloned onto human CH and human CK

- IC50 (read off the curve) [1]: ~0.9 µg/mL
B2: recombinant humanized antibody expressed by the HZD-V2 clone (antibody, V domains shown)
VH: B1 VH with K72R
VL: B1 VL with V29I, G31N
notes: The pairing of VH-HZD2 with VK-HZD2 for clone HZD-V2 is inferred from the names; Variable domains were cloned onto human CH and human CK

- IC50 [2]: 0.166 µg/mL
- ratio of Kd to that of AVASTIN (human VEGF [3]): 0.01
- EC50 (read off the curve) [4]: ~0.01 µg/mL
- Kd (human VEGF [5]): 0.485 nM
- IC50 (read off the curve) [1]: ~0.9 µg/mL
- ratio of Kd to that of AVASTIN (human VEGF [6]): 0.01 fold (Kd of EPI0030 / Kd of AVASTIN)
- Kd (human VEGF [7]): 0.331 nM
- Kd (human VEGF [8]): 0.638 nM
B3: EPI0030 antibody (humanized rabbit anti-VEGF monoclonal antibody expressed by the HZD-V6 clone) (antibody, human IgG1, kappa, V domains shown)
VH: EVQLVESGGGLVKPGGSLRLSCAASGFSFSNNDVMCWVRQAPGKGLEWIGCIMTTDVVTEYANWAKSRFTVSRDSAKNSVYLQMNSLRAEDTAVYFCARDSVGSPLMSFDLWGPGTLVTVSS
VL: DIQMTQSPSSLSASVGDRVTINCQASQSIYNNNELSWYQQKPGKPPKLLIYRASTLASGVPSRFSGSGSGTDFTLTISSLQPEDVATYYCGGYKSYSNDGNGFGGGTKVEIKR

- IC50 (read off the curve) [1]: ~0.9 µg/mL
B4: recombinant humanized antibody expressed by the HZD-V5 clone (antibody, V domains shown)
VH: B3 VH with R73K
VL: B1 VL with A1D, L2I
notes: The pairing of VH-HZD5 with VK-HZD5 for clone HZD-V5 is inferred from the names; Variable domains were cloned onto human CH and human CK

From US20120231011A1 (APEXIGEN, published 2012)
